Patent US20180355060A1 (published 2018)

Assays:
[1] = biological target: T1, human transglutaminase type 2 (TG2) (human, UniProt P21980 1-687); test: cell-based or functional assay
T1 sequence: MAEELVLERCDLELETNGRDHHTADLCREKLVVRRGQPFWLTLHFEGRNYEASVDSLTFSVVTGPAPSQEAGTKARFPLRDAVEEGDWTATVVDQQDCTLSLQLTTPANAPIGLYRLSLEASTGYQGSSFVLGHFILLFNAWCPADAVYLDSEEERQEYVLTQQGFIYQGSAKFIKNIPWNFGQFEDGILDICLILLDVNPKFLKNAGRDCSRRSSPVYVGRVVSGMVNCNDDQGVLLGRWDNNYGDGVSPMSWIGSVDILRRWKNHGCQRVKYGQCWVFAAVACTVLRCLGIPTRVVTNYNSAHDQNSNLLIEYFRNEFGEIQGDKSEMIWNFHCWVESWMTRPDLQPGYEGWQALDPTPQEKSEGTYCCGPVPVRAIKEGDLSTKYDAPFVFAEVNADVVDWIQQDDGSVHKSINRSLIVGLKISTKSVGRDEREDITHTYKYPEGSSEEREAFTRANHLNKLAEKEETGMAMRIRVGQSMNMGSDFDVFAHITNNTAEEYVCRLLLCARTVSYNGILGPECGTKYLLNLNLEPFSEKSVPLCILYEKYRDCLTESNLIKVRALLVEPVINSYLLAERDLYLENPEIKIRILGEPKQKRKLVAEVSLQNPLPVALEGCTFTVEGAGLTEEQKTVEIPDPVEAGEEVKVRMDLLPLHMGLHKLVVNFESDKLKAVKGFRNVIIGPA

mouse TG2 = biological target: T2, mouse TG2 (mouse, UniProt P21981 1-686); test: western blot and ELISA
T2 sequence: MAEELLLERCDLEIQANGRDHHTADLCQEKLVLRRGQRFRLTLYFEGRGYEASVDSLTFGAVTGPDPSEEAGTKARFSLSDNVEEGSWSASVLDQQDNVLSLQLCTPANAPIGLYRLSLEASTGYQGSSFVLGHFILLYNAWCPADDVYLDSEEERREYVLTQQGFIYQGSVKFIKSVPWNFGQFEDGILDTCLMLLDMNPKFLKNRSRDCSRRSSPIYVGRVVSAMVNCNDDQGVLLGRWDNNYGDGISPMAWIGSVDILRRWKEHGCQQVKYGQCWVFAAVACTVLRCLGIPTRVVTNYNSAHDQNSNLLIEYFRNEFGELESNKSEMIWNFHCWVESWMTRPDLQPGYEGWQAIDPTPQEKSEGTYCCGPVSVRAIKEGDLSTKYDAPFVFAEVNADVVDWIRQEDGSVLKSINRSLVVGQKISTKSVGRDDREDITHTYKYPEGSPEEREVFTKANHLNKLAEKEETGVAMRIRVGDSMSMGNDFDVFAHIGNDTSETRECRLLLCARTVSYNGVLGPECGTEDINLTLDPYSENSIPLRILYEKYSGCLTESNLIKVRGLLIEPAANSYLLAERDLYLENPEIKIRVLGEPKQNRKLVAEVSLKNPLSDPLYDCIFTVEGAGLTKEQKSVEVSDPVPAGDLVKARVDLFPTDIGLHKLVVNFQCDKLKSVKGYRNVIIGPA

rat TG2 = biological target: T3, rat TG2 (rat, UniProt Q9WVJ6 1-686); test: western blot and ELISA
T3 sequence: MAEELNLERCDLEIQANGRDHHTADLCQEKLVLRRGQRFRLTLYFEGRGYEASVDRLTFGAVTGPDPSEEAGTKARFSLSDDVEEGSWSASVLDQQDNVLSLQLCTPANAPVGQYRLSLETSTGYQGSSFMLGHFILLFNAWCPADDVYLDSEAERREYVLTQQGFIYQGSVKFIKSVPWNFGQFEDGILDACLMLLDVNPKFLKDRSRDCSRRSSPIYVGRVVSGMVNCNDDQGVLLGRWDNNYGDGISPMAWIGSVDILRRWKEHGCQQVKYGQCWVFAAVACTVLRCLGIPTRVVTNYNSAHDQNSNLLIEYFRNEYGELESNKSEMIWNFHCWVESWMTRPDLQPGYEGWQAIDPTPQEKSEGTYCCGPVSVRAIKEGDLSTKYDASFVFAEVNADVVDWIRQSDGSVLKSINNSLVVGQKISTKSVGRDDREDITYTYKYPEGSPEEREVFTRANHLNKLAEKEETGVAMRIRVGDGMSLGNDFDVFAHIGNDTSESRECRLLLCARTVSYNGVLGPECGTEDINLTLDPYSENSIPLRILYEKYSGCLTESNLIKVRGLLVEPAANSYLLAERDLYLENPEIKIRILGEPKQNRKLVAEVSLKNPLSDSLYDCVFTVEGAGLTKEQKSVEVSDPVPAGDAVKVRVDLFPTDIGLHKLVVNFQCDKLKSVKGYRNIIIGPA

IC50, 3H-putrescine incorporation TG activity assay [1]: 1.1e-05 mg/ml of IgG (amount required to inhibit 1 ng of TG2) | binding result (mouse TG2): binds | binding result (rat TG2): binds
B1: AB1 murine monoclonal anti-TG2 antibody (antibody, V domains shown)
VH: EVQLVESGGGLVKPGGSLKLSCAASGFTLSSSAMSWVRQTPDRRLEWVATISVGGGKTYYPDSVKGRFTISRDNAKNTLYLQMNSLRSEDTAMYYCAKLISLYWGQGTTLTVSS
VL: DIKMTQSPSSMYASLGERVTITCKASQDINSYLTWFQQKPGKSPKTLIYRTNRLFDGVPSRFSGSGSGQDFFLTISSLEYEDMGIYYCLQYDDFPYTFGGGTKLEIK
notes: they differ only in the first residues; also called AB1 IgG; mAB003
